According to patent publication US20090255014A1 (HELMHOLTZ ZENTRUM F R INFEKTIONSFORSCHUNG, published 2009):

Target: T1, native Cpn10 of Oleispira antarctica (Oleispira antarctica, UniProt Q8KM31 1-97)
T1 construct: Co-chaperonin; also called co-chaperonin Cpn10; co-chaperonin
T1 sequence: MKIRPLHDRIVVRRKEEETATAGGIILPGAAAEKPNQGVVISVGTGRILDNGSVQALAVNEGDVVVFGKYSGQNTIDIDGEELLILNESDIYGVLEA
Experiment: conclusion from in vitro refolding of denatured mtMDH with Cpn10 and ATP
Excerpt: The behaviour of the stabilized single ring mutant led to the conclusion that at the low temperature, the co-chaperonin Cpn10 could bind even to the heptameric conformation, whereas at elevated temperature presumably Cpn10 could not be released from this heptameric single ring.

B1: stabilized single ring mutant Glu461Ala/Ser463Ala/Val464Ala of Cpn60 of O. antarctica (other)
chain: MAAKDVLFGDSARAKMLVGVNILADAVRVTLGPKGRNVVIEKSFGAPIITKDGVSVAREIELKDKFENMGAQMVKEVASQANDQAGDGTTTATVLAQAIISEGLKSVAAGMNPMDLKRGIDKATAAVVAAIKEQAQPCLDTKAIAQVGTISANADETVGRLIAEAMEKVGKEGVITVEEGKGLEDELDVVEGMQFDRGYLSPYFINNQEKMTVEMENPLILLVDKKIDNLQELLPILENVAKSGRPLLIVAEDVEGQALATLVVNNLRGTFKVAAVKAPGFGDRRKAMLQDLAILTGGQVISEELGMSLETADPSSLGTASKVVIDKENTVIVDGAGTEASVNTRVDQIRAEIESSTSDYDIEKLQERVAKLAGGVAVIKVGAGSEMEMKEKKDRVDDALHATRAAVEEGVVAGGGVALIRALSSVTVVGDNEDQNVGIALALRAMEAPIRQIAGNAGAAGAAVVDKVKSGTGSFGFNASTGEYGDMIAMGILDPAKVTRSSLQAAASIAGLMITTEAMVADAPVEEGAGGMPDMGGMGGMGGMPGMM
notes: also called triple mutant Glu461Ala/Ser463Ala/Val464Ala
binding result: binds
